Reference: US12331110B2, “Monoclonal antibodies against endotrophin and the use thereof” (THE BOARD OF REGENTS OF THE UNIVERSITY OF TEXAS SYSTEM, priority 2018, dated 2025)

Legend:
[1] = molecular target: T1, recombinant endotrophin protein (Homo sapiens, UniProt P12111); test: Affinity measurement with BLI (Octet RED96); details: Octet (96-Red), 1:1 binding model
T1 construct: the latter consisting of 77 amino acids at the carboxy-terminal of the COL6α3 chain; CD33 signal peptide (N, cleaved yes); His-tag with EK-cleavage site (N, cleaved yes); purchased Sino Biological, Beijing, China; host or cells: HEK293
Protocol: FIGS. 12A-B. Kinetic sensorgrams for ETP-mAb4 (FIG. 12A) and each of the humanized antibodies (FIG. 12B). […]
For antibody affinity measurement, antibody (30 μg/mL) was loaded onto the protein A biosensors for 4 min. Following a short baseline in kinetics buffer, the loaded biosensors were exposed to a series of recombinant endotrophin protein at 0.1-200 nM and background subtraction was used to correct for sensor drifting. All experiments were performed with shaking at 1,000 rpm. Background wavelength shifts were measured from reference biosensors that were loaded only with antibody. Kinetic sensorgrams for each antibody are shown in FIGS. 12A&B. ForteBio's data analysis software was used to fit the data to a 1:1 binding model to extract an association rate and dissociation rate. The Kd was calculated using the ratio of koff/kon and the estimated values of […] for endotrophin ETP-mAb4 and 4 humanized ETP-hMab4 antibodies are listed in Table 4.

SC macrophage cells = test: SC macrophage trans-well migration towards ETP transfected MCF7 cells; type: cell-based, human; details: 10, 2, 0.4, 0.08 μg/mL antibody, 2 hr
Protocol: FIGS. 3A-D. Generation and screening of anti-human endotrophin. (FIG. 3A) MCF7 breast cancer cells (20,000 cells) were plated into a 96-well plate. Cells were then treated with 10 μm cisplatin, 10 μm cisplatin/100 ng/mL endotrophin, and 10 μm cisplatin/100 ng/mL endotrophin/10 μg/mL ETPmAb4 for 24 hr. Cell survival was measured using a CellTiter One Solution Cell Proliferation Assay. Statistical significance of the curve fit parameters was tested using the extra sum of squares F test with P<0.05 considered significant. Goodness of curve fit is described using r2. Mean±SEM, n=3. (FIG. 3B) ETP transfected MCF7 cells (100,000 cells) were plated into a 24-well plate with 500 μL media. Then 4 μL of supernatant was loaded for Western blotting. It is estimated that approximately 1 ng of ETP was loaded, compared with the standard ETP (2 ng band). The concentration yields approximately 0.052 pg secreted ETP/hr/cell. (FIG. 3C) Total RNA was extracted from MCF7, HCC1395, MDAMB231, ZR-75 and MDAMB453 cells. ETP expression was determined by qRT-PCR and normalized to GAPDH. […] Migrated cells were counted after a 2 hr incubation. In all cases, data was represented as mean±SD, and statistical significance (*** p<0.0001) was calculated using an unpaired Student's t-test.
Primary Culture of Human Cells and Transwell Assays. […] Migrated cells were then counted after 2 hr. […]

T1 sequence (P12111 3101-3177): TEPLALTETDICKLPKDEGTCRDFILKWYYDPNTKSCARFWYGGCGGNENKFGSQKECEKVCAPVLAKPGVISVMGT

- kdis [1]: 2.49 E−04 1/s
- kon [1]: 1.42 E+05 1/Ms
B1: ETP-mAb4: rabbit monoclonal anti-human endotrophin antibody selected for further study; VH SEQ ID NO: 125, VL SEQ ID NO: 126 (antibody, V domains shown)
VH: SSRVKESGGDLVKPGASLTLTCKASGFSFSSGYYICWVRQAPGKGLEWIACIYGGNNNPYYANWVNGRFTTSKTSSTTVTLQMTNLTGADTATYFCARKDINIGGAYELWGPGTLVTISS
VL: ELVMTQTPASVSEPVGGTVTINCQASQSISSSYLSWYQQKPGQPPKLLIYKASTLASGVPSRFKGSGSGTQFSLTISDLECADAATYYCQYSDWANSYGNAFGGGTEVVVK
- migration of SC macrophages into the bottom chamber (SC macrophage cells): effectively prevented the migration
